Laboratory results reported in the DeepSol protein solubility set.

experiment: soluble on expression in E. coli; label from the status in PepcDB or PDB records

Q: With “MTQGKGTREGGVLADVSALGPGGHAVVVGGGLAGVTTALALADAGVRVTLLEGRPRLGGLAFSFQRGDLTVDNGQHVYLRCCTAYRWFLDRIGGAALAPVQERLDVPVVDLARTEGNRLGRLRRDALPVPLHLGRSLATYPHLSLAERASVGRAALALKGLDLADPSLDTQDFGSWLTAHGQSARAVEALWDLVGVATLNAVAGDASLGLAAMVFKTGLLSDPGAADIGWARVPLGELHDRLARKALDSAGVRTEVRTRVTSVSVNENGGWSVQVPGETLEADAVVLAVPQREAHDLLPDGALDAPENLLRIGTAPILNIHVIYDRKVLGTPFLTALGTPVQWVFDRTEASGLKEGQYLALSQSTAQNDIDEPVAVLRERYLPELERLLPRTRGAEVKDFFVTRERTATFAPAPGVGRLRPGARTKAPGLYLAGAWTATGWPATMESAVRSGVGAAAAALGALGRSRGLLPDFFEEAALEHHHHHH” as the sequence, how does the “soluble on expression in E. coli” value read?
A: not soluble

Q: Which “soluble on expression in E. coli” value does the source give for “MTQKNESQRQDRVAAWSRHAESELSAYQSAAKLDLQAQKPRDHKLCASLEEAIRRSGLRDGMTVSFHHAFRGGDLTINLVMETIAKMGFKNLTLASSSLSDCHAPLVEHIRNGVVSRIYTSGLRGPLAEEISRGLLAEPVQIHSHGGRVHLVQSGELNIDVAFLGVPSCDEFGNANGYTGKACCGSLGYAMVDADSAKQVVMLTEQLLPYPHNPASIAQDQVDLIVQIEEVGDANKIGAGATRMTTNPRELLIARSAAEVIAHSGYFNEGFSLQTGTGGASLAVTRFLEDKMRSRNIVANFALGGITATMVDLHEKGLIRKLLDVQSFDRNAAQSLARNPNHIEISANQYANWGSKGASVDRLDVVVLSALEVDTHFNVNVLTGSDGVLRGASGGHCDTAVAAALSIIVAPLVRGRIPTLVDNVTTCVTPGSSVDILVTDHGIAVNPARPELAERLKAAGMKVVSIEWLRERAQLLTGQPRPIEFTDRVIAVVRYRDGSVIDVVHQVKE” here?
A: not soluble

Q: Which “soluble on expression in E. coli” value does the source give for “MTQLKPGACWSDNPKKVLEMLSPMNIIAITRSIPENTPNSWFIYWLTKVEEGEVRENIYAISPTKLEILPDLVKKALKLGYDGVYIDGIEALVIENGFKSVAKFLLHIKDIVLAENKFIILTLDPRALKEEEIKIIEKEFKKLELSLEHHHHHH” here?
A: soluble

Q: With “MTQLKTQYPSLIIDASFITLAANATVKPQDKTYNTVNLLNRFFLIWLDVASRGLSHHHVLSHPFKDWMTNMLDFPYHHEFIEFLGRWTHILIALPKRHHGQVDTAIPRYLLVTIREKTGIVKLTTVQNTAFTTQSNQLKKQYGQFLLTESNNCCACPGCDRPLILTSGNLAAENYEVSAIEKDKDAEALNLIALCPDGFLTYQADRRKKIVTTLKNVKKILVSAHNSQQAISDMKLDSGIVSVLTSLNKLKCDEYNISYDSKQLTDKISPENNRTLYQLVKNQVIDNYLTIQKIIVNLDKQGKIDYEKIQYQTRSMYKKLKAAKHNNLAIFNTISEKLHLATLQDIYFCQMIVSYFIQKCEVLE” as the sequence, how does the “soluble on expression in E. coli” value read?
A: not soluble

Q: Which “soluble on expression in E. coli” value does the source give for “MTRPPAGTPYWDAAELPTQPQLHGVVTADVAVVGAGLAGLSCAYHLAERAPGLDIAVVDAEHPAAGASGRGTGLLGPRAGPAVDRAVRRFGPQTARRMHRASERAVRDVLALCARLDVPCGLRTGEQLVATRSSAGLAALARQARACRELGLDVPVLTPAGIRDRVGVPYRAALLHRPAATLDPAALTCALARACADKGVRFYGRSPLLALRPGDLVGPELVLPHGRLYAGQAVLAVNSAAQALDLPVGTVLPLEVYAVATEPLSAPAYEALGGRAGHAVVDAVPMAPYFRLLPDRGLVAGGGTATVPAGVGAPRLQAVRERAWSWLERWLRALHPDLARVRVTHRWSGRIGMTGDDLPVVGPVPGYDDVWYIGGCCGHGLALSVAHGAHVAAALLGEPEPGEPLPWHRSRAPRLPARGPAGPLLRAYVDAMGRIARHTCLEHHHHHH” here?
A: not soluble

Q: For “MTRTYAMVGTPCQITAATLMDRYTEDFPVELKLGLFCMENFSYTYLKKLAEEEGIDLADVSELRIEKGRLWFHLNDGSKVSVSLERARAAMRKNCSVCMDFTSEQSDISIGSVGSPEGWSTIIIRTERGHELIEKARKAGYIETKPLTERGIRILEKLASGKKEDNLQEIKRRESVARPVLYWRVMPDEEYLEEVTDYQFDDLRSDVIDVGACVLCGACVASCPEDIVSIKDRKPEVEGTCPEGCNACYVACPRTYVPDSIIGHDSAITPLGEYIEILSARAPMFRGQDGGVVTALLTYALREGIIDGALVVDRDQERPWKPLPVLAEEPQDIVKAAGTKYSACPLLKVLKELEHHHHHH”, which “soluble on expression in E. coli” value is on record?
A: soluble

Q: For “MTSKADYLKKYLSPASGDIEKKKKKKNKDKNKPSGLRLIEEDAFLSVDAAKTRDIGSDEEREEIEVLKQSVKKAKVVHGFKQTFAEVDAPKVIKPEPLSPDNSPPRGKRQRHDSDNSPPRPSRKRNDSDNSPPRPSRNRHDSDKDNSPPRRRRHDSDNSPPRPSRKIREESPSARNRRSPPRTRRDRHDSDNSPPRNRSRRDSDNSPPRRRPSSPARRRKDDDLSPPRKSRKIEEPKKIKKEEPDSDTETSGRTLEGKRSGLQSARDLKEESDKLRAKNSKMFEEMDTSVSGRFADTVYRQKQTKKKGKDSEEDQAKKERETKKTEELKEKYKSWNKGVAQIEDRRAQLEEMARVAAEPMARARDDDAMNAHLKEVLHAADPMANMIQKKRRDTAIDRGELVYPSYHGHFVPNRFGIAPGYRWDGVDRSNGFEGKLAKTENTKTANQSEYYKSIAEYE”, which “soluble on expression in E. coli” value is on record?
A: not soluble

Q: For “MTSNHAILFPGQGAQRADMGAPIFDIYTKLVAEAEEIAEFSIRDFFRDCPADRFSNTLYVQPALYTVNALYYRRYIDESGALPLFLAGHSLGEFNALHAAGVFDFETGLRLVKKRALLMSESQGGGMAAVLGLNAEEVVKILEENNLFDLTIANINSDLQMVISGPIESIKQAEEIFYDNYAIKYVVLRVSGAFHSTMLNTAAIKFSEYIQGFSFLPPQIPVIANRTACPYTLSSVIKNLSEHINRPVMWRQSVIYMRTHGVERFTEMGETSLLLDMVKNIL”, which “soluble on expression in E. coli” value is on record?
A: not soluble

Q: For “MTSPMTSKDSKLTLAEKVWRDHVVSQGEGDQPDLIFIDLQLLHEVTSPQAFDGLRMAGRTLRHPELHLATEDHNVPTEGIHNGSLLEINDLVSRTQVETLRKNCEEFGVRLHAMGDKKQGIVHQVGPQLGATQPGMTIVCGDSHTSTHGAFGAMAFGIGTSEVEHVMATQTLSLKPFKTMAINVTGELQPGVTAKD”, which “soluble on expression in E. coli” value is on record?
A: not soluble

Q: With “MTSRKAKESAHMSASDIISTFNDFFTNFPANKSFDMTYKVYLKDLADADEELTSSRRNSELNLTENKPITIASCGFVPQMMSSSTVKNLSLSSSATNFNSEKSEIGSKITMNPAKQVLKGRNTRKKRSMVDLSQINKIFGRDYNPPAPSSKSPPTIYVNLGVIYSSSSSHASDASSISSHTSVSSTFTEKQHEFGKLVPSGTDGSLELFVKVADCFD” as the sequence, how does the “soluble on expression in E. coli” value read?
A: not soluble

Q: For “MTSSATSPTNGVDKNKNEEMVATPANCPYQLFNQEVVWNGKWIQTRQVGFKTHTGQVGVWQSVHRNTKPVEASADGVSIIARVRKQGKLYIVLVKQYRIPCGKLCLELPAGLIDAGETAQQAAIRELKEETGYVSGKVVMESKLCFLDPGLTDDSQCLVVVDVDGDAPENQNPVQVLDSTESIEVLLVEQSALMAYVTNLDSSSIVVESTLLAYAMGIQFATI”, which “soluble on expression in E. coli” value is on record?
A: not soluble

Q: Which “soluble on expression in E. coli” value does the source give for “MTSSSTPRHRGIFPVVPTTFADTGDLDLASQKRAVDFMIDAGSDGLCILANFSEQFAITDDERDVLTRTILEHVAGRVPVIVTTSHYSTQVCAARSLRAQQLGAAMVMAMPPYHGATFRVPEAQIFEFYARVSDAIAIPIMVQDAPASGTALSAPFLARMAREIEQVAYFKIETPGAANKLRELIRLGGDAIEGPWDGEEAITLLADLHAGATGAMTGGGFPDGIRPILEAWREGRHDDAYARYQAWLPLINHENRQSGILTAKALMREGGVIASERPRHPMPELHPDTRAELLAIARRLDPLVLRWAH” here?
A: soluble

Q: For “MTTAIQYQVIPLADREHSNKVASILENKYKTATNKRITLNERFGVLEKGYTIQATEPETVKNDSDVFFVVHDRNLNSKKEFVENYLAKNPIVNSPEKVFEEEDKENAPTKKAVLKPSSTDEKKLTSSDIYIQEITRSILQSV”, which “soluble on expression in E. coli” value is on record?
A: not soluble

Q: For “MTTARDIMNAGVTCVGEHETLTAAAQYMREHDIGALPICGDDDRLHGMLTDRDIVIKGLAAGLDPNTATAGELARDSIYYVDANASIQEMLNVMEEHQVRRVPVISEHRLVGIVTEADIARHLPEHAIVQFVKAICSPMALAS”, which “soluble on expression in E. coli” value is on record?
A: soluble

Q: Which “soluble on expression in E. coli” value does the source give for “MTTAVQPSDTTGFGGGPAGSRASDLIQFQEIMSESAESSSSSSQTNVSAANTLPRESNGQNYADDPSHVYTNIREIEELNSRPVPPTPRADAQPRRDLLNGWFEYETDVGRTFFFNKETGKSQWIPPRFIRTPAQVQEFLRATRTNLDTTCSFQGSSTSSSEEQKENKMRESLADDDRKSQLIEDEEVFDEVCDDVDEQSSPVIDLQSRPLPIPFSDSFTDDEDEDDVKPIEGSIASDSDFDEEPVPTSSRKASTASGVMMPHPYAHVSSFQSTFPRAKNEDTDKLASYVIPPDANETSKTPTAIRVRRPSPTNLRSVSFQNKCTVLKNVPMPQVLPTTSSSFDHHPQYHSNTPDRPILMEDSADFTPSSRCEERRGSGDGREPVRTIRCGDLERSENDEPAEKVVKPKKREWITNYMYLTTAHLILYKDQKSAEKHGKHYDAPQGVWDLRGASVTWYQDNRDVQKKKQRKYIQLELCNTKKYLLRGPNDTEAVEWYKSLEEVVAKLPSPGSSNQPMIDVTNGVARNPSYIGSTRPLSHALIPISRSMRRRDDPMSQSAIETVSTSVSTDEPRPSKETIIEKLRRFFRTRPTVESLKEKGIYKPEPVFGSTLSAICQHENSLVPKFIRVITEVIESKGLETDGIYRVSGNLSAVQKIRCQADQDNYKALVSEEDIHVLTGALKLFFRELTDPLFPISLHKEYTSAMQMPNATTRFKKFEELLSRLPNENRETLKMLLRHLNRVASHSSQNRMQQHNLAIVFGPTLFHNGDGAVNLATKNKKAGKKAKPSKKEETQATPVQSNSHLAFSMIMQSQIVQYLLESANKFDILKAPVNIGR” here?
A: not soluble

Q: With “MTTEAPVRVEDKLYQNRYLVDVGNAHIKVKPHTKPSPQLLALLKVCPAHCYELNSNGQVEVTPDGCVECGTCRVLAEGGGDIEWSYPRGGYGVLFKFG” as the sequence, how does the “soluble on expression in E. coli” value read?
A: not soluble

Q: Which “soluble on expression in E. coli” value does the source give for “MTTEQEFEKVELTADGGVIKTILKKGDEGEENIPKKGNEVTVHYVGKLESTGKVFDSSFDRNVPFKFHLEQGEVIKGWDICVSSMRKNEKCLVRIESMYGYGDEGCGESIPGNSVLLFEIELLSFRELE” here?
A: soluble

Q: For “MTTFILSHNLQVQSKDVPPFETQVLADGIVSNSSAIISATVIQHPHWIIELTSNLPPNDMAVELVKSWKQLRSKLGQSADHVILALGGRKDSLAAPGAPLQEGFWGVDVVETHDEEAFLQAINWDALKSNRPEDGVFEISSNN”, which “soluble on expression in E. coli” value is on record?
A: not soluble
